First the molecules themselves.
B1: 2D3 (antibody, V domains shown)
VH: EVQLLESGGGLVQPGGSLRLSCTASGFTFSDNHMSWVRQAPGKGLDWVSGISESGGSTYYADSVKGRFSTSRDNSKSTLYLDMNSLRAEDTAIYYCAKGRFSYDTRHFFRAVYGMDVWGQGTAVTVSS
VL: DIQLTQSPSSLSASVGDRVTITCRASQGISSYLAWYQQKPGKAPKLLIYAASTLQSGVPSRFSGSGSGTDFTLTISSLQPEDFATYYCQQLSSYPLSFGGGTKVEIK
B2: 7B1-1F5 (antibody, V domains shown)
VH: B1 VH with H33Y, G50V, Y59N, Y103T, D104L, T105S, R106S
VL: B1 VL with L11F, V15T, L46V, D70E, S92K, S97T, V104L
B3: 9B12 (antibody, V domains shown)
VH: B1 VH with H33P, G50V, Y59N, Y60D, Y103T, D104N, T105S, R106D, F109Y
VL: B1 VL with S97T

This note sets out measurements from patent publication US20220289830A1.

Changes are numbered by the printed parent chain.

The target of the assay is native PcrV on live Pseudomonas aeruginosa (strains O6-57/66, O11-PA103, O1-52/66, O16-177/81) (Pseudomonas aeruginosa). Put plainly: cell-based or functional assay.
In turn, B1 gave an RBC lysis assay IC50 (P. aeruginosa strain 57/66(O6)) of 0.05 µg/mL.
The result for B2 reads 0.19 µg/mL; that for B3, 0.07 µg/mL.
